The target in the test is T1, GST-SHIP164-CT (residues 1063–1364) (UniProt A0JNW5 1063-1364).
T1 construct: SHIP164, fragment of the C-terminal region, residues 1063-1364; also called purified SHIP164-CT fragment (residues 1063–1364); source: TSsetta (DE3) cells, purified (GST-tag resin)
As to the kind of experiment: pull-down; GST pull-down: purified GST protein on GST tag resin, His fusion protein added, 12 h at 4 °C, HNM buffer (20 mM HEPES pH 7.4, 100 mM NaCl, 5 mM MgCl2, 1 mM DTT, 0.2% NP-40); blot with anti-GST or His antibodies. As to conditions: both partners purified.

T1 sequence (A0JNW5 1063-1364): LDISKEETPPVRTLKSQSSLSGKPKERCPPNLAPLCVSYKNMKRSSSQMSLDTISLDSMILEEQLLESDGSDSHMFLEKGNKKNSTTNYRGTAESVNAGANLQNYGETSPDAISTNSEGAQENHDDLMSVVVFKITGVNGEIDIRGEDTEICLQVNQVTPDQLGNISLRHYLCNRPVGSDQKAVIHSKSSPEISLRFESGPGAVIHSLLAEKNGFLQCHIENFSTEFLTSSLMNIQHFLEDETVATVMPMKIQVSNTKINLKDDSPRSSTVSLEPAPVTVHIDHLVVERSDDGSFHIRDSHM

B1: His-Vps26B-NT (residues 1–160) (domain or fragment, UniProt Q4G0F5 1-160, looked up)
chain: MSFFGFGQSVEVEILLNDAESRKRAEHKTEDGKKEKYFLFYDGETVSGKVSLALKNPNKRLEHQGIKIEFIGQIELYYDRGNHHEFVSLVKDLARPGEITQSQAFDFEFTHVEKPYESYTGQNVKLRYFLRATISRRLNDVVKEMDIVVHTLSTYPELNS
notes: Vps26B N-terminal region, residues 1-160; also called His-Vps26B NT region; purified Vps26B-NT fragment; source: TSsetta (DE3) cells, purified (Ni-NTA resin)
Turning to B1, the binding result is listed as “binds”.

Values taken from paper PMC10987540, “Biogenesis of Rab14-positive endosome buds at Golgi–endosome contacts by the RhoBTB3–SHIP164–Vps26B complex” (Cell Discovery, 2024).
